Earlier results on one substance are cited in publication PMC8481289.

The target in the series is UFC1 (Homo sapiens) (UniProt Q9Y3C8).
Sequence of UFC1 (Homo sapiens) (Q9Y3C8 whole entry): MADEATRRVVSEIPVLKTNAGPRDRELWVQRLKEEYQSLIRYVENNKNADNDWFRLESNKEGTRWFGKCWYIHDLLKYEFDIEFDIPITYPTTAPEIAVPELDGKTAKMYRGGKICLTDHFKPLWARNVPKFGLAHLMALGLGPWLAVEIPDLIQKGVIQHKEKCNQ

Sequence of UBA5 (Q9GZZ9 whole entry): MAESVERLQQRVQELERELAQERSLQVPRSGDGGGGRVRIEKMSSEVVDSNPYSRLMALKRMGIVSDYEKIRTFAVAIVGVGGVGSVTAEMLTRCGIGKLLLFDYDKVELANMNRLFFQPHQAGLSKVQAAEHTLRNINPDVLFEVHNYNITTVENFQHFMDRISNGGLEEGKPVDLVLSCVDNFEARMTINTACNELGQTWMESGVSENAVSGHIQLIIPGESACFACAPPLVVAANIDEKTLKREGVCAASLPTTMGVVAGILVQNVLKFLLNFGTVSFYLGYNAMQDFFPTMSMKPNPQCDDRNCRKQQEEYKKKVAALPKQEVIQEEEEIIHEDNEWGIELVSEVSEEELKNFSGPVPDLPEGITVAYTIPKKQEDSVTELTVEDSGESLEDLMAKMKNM

What is called Kd is the concentration at which binding is half-saturated. Turning to UBA5 (from UniProt Q9GZZ9), the Kd is 1000 nM.
